Reference: patent US20160355590A1

Target: HLA-DR on Raji cells, the Lym-1 antigen (HLA-Dr10) (human)
Test: cell-based or functional assay

With Lym-1 CAR (on primary human T-cells) as the substance, how does the lysis of target Raji cells (LDH cytotoxicity assay) read?
The lysis of target Raji cells (LDH cytotoxicity assay) was 22%.
